Results as given in paper PMC6614797.
Like-named read-outs stand apart in the source and are kept apart here.

Columns and labels:
Assay in all cases: analytical size exclusion chromatography
[1] = target: NusB;NusEdelta (S10 lacking the ribosome binding loop) (Escherichia coli;Escherichia coli, UniProt P0A780;P0A7R5 1-139;1-45+68-103, |internal_change)
SuhB [2] = target: T1, SuhB (Escherichia coli, UniProt P0ADG4 1-267)
[3] = target: RNA polymerase;NusA;NusB;NusEdelta (S10 lacking the ribosome binding loop);NusG;SuhB (Escherichia coli;Escherichia …, UniProt P0A7Z4;P0A8V2;P0A8T7;P0A800;P0AFF6;P0A780;P0A7R5;P0AFG0;P0ADG4 …, |||internal_change||)
SuhB [4] = target: T1, SuhB; remark: listed apart in the source

B1: rrnG RNA (structured_RNA)
RNA: GGGCCGCGCCGCUGAGAAAAAGCGAAGCGGCACUGCUCUUUAACAAUUUAUCAGACAAUCUGUGUGGG
binding result [1]: binds | binding result (SuhB [2]): binds

B2: rrnG-EC scaffold (T-DNA, NT-DNA, rrnG RNA) (mixed)
DNA 1: ATCCGTATCTTCGAGTGCCCACACAGATTGTCTCATAAATTGTTAAAGAGCAGTGCCGC
DNA 2: GCGGCACTGCTCTTTAACAATTTATCAGACTTGTCCACGCTCGTCTCGAAGATACGGAT
RNA: B1 RNA
binding result [3]: binds

UUUUUGAGUCUGCGGCGCGCG (ssRNA) [random RNA]
binding result (SuhB [4]): no binding
